Residue numbers refer to the chain shown, from its start.
B1: NRC3_wobSeed98_DR4_T9A_o1 (dsDNA)
DNA 1: GCACTAGTAGGTCAGCTGAGGTCACACACAATTCGGGCGATTGACAGCGTAGAATGAAGG
DNA 2: CCTTCATTCTACGCTGTCAATCGCCCGAATTGTGTGTGACCTCAGCTGACCTACTAGTGC
B2: NRC3_wobSeed98_DR4_T9G_o1 (dsDNA)
DNA 1: B1 DNA 1 with A9G
DNA 2: B1 DNA 2 with T52C
B3: NRC3_wobSeed85_DR3_G24T_o1 (dsDNA)
DNA 1: GCCGTCCAAGGTCAGAGAGGTCATTGAATGCCGAGTGCGATTGACAGCGTAGAATGAAGG
DNA 2: CCTTCATTCTACGCTGTCAATCGCACTCGGCATTCAATGACCTCTCTGACCTTGGACGGC
B4: NRC3_random_hg19_185_o1 (dsDNA)
DNA 1: GCTAGTGAGTGAGTTCTCACAAGAAATGGTTGTTTAGCGATTGACAGCGTAGAATGAAGG
DNA 2: CCTTCATTCTACGCTGTCAATCGCTAAACAACCATTTCTTGTGAGAACTCACTCACTAGC
B5: NRC3_wobSeed116_DR4_A21G_o1 (dsDNA)
DNA 1: GCAGAATGAGGTTACCAAAGGTCAGGGAAACGCTTGGCGATTGACAGCGTAGAATGAAGG
DNA 2: CCTTCATTCTACGCTGTCAATCGCCAAGCGTTTCCCTGACCTTTGGTAACCTCATTCTGC
B6: NRC3_wobSeed136_DR5_C24A_o1 (dsDNA)
DNA 1: GCTAGCCTAGGTCATTCAGGGGCAAGTATAGAAAGCGCGATTGACAGCGTAGAATGAAGG
DNA 2: CCTTCATTCTACGCTGTCAATCGCGCTTTCTATACTTGCCCCTGAATGACCTAGGCTAGC
B7: NRC3_wobSeed88_DR3_G11T_o1 (dsDNA)
DNA 1: GCTAGCCTAGTTCATGCGGGCCAGTATAGTGTCGGCGCGATTGACAGCGTAGAATGAAGG
DNA 2: CCTTCATTCTACGCTGTCAATCGCGCCGACACTATACTGGCCCGCATGAACTAGGCTAGC
B8: NRC3_random_hg19_439_o1 (dsDNA)
DNA 1: GCTATGGTTTGGCTGTGTCTCCATTCAAATCTCAACGCGATTGACAGCGTAGAATGAAGG
DNA 2: CCTTCATTCTACGCTGTCAATCGCGTTGAGATTTGAATGGAGACACAGCCAAACCATAGC
B9: NRC3_wobSeed118_DR4_G13C_o1 (dsDNA)
DNA 1: GCTTACCAAGGTCAGCTGAGGTCGTTGATCCAACTCGCGATTGACAGCGTAGAATGAAGG
DNA 2: CCTTCATTCTACGCTGTCAATCGCGAGTTGGATCAACGACCTCAGCTGACCTTGGTAAGC
B10: NRC3_wobSeed142_DR5_G13C_o1 (dsDNA)
DNA 1: GCATACCAAGGTCATCGTGAGGTCGTTGATACTAACGCGATTGACAGCGTAGAATGAAGG
DNA 2: CCTTCATTCTACGCTGTCAATCGCGTTAGTATCAACGACCTCACGATGACCTTGGTATGC
B11: NRC3_random_hg19_217_o1 (dsDNA)
DNA 1: GCCTCAAACTCCCTTCTTCAGTTTCTGGTAGATCAAGCGATTGACAGCGTAGAATGAAGG
DNA 2: CCTTCATTCTACGCTGTCAATCGCTTGATCTACCAGAAACTGAAGAAGGGAGTTTGAGGC
B12: NRC3_random_hg19_394_o1 (dsDNA)
DNA 1: GCGAGATCGAGACCATCTTGGCTAACACGGTGAAACGCGATTGACAGCGTAGAATGAAGG
DNA 2: CCTTCATTCTACGCTGTCAATCGCGTTTCACCGTGTTAGCCAAGATGGTCTCGATCTCGC
B13: NRC3_wobSeed97_DR4_A18G_o1 (dsDNA)
DNA 1: GCCAAACTAGGTCACGAGAGGTCAAAGTCGAATGACGCGATTGACAGCGTAGAATGAAGG
DNA 2: CCTTCATTCTACGCTGTCAATCGCGTCATTCGACTTTGACCTCTCGTGACCTAGTTTGGC
B14: NRC3_random_hg19_109_o1 (dsDNA)
DNA 1: GCTGGTGTTTCATCACTGTGGCAACTTCCCACCTGGGCGATTGACAGCGTAGAATGAAGG
DNA 2: CCTTCATTCTACGCTGTCAATCGCCCAGGTGGGAAGTTGCCACAGTGATGAAACACCAGC
B15: NRC3_wobSeed49_DR2_T8C_o1 (dsDNA)
DNA 1: GCCAAACCAGGTCAAGAGGTCAAAGTCCGCTTCCCGGCGATTGACAGCGTAGAATGAAGG
DNA 2: CCTTCATTCTACGCTGTCAATCGCCGGGAAGCGGACTTTGACCTCTTGACCTGGTTTGGC
B16: NRC3_random_hg19_412_o1 (dsDNA)
DNA 1: GCACAACAGATGCTGGAGAGGATATGGAGATCCTTTGCGATTGACAGCGTAGAATGAAGG
DNA 2: CCTTCATTCTACGCTGTCAATCGCAAAGGATCTCCATATCCTCTCCAGCATCTGTTGTGC
B17: NRC3_random_hg19_176_o1 (dsDNA)
DNA 1: GCCTGCCTGTGTTGGGACTTTGACTCCACATTTCCCGCGATTGACAGCGTAGAATGAAGG
DNA 2: CCTTCATTCTACGCTGTCAATCGCGGGAAATGTGGAGTCAAAGTCCCAACACAGGCAGGC
B18: NRC3_random_hg19_346_o1 (dsDNA)
DNA 1: GCGCCTTCTGCTACAGGGCAAAGGTGGCACACAAAGGCGATTGACAGCGTAGAATGAAGG
DNA 2: CCTTCATTCTACGCTGTCAATCGCCTTTGTGTGCCACCTTTGCCCTGTAGCAGAAGGCGC
B19: NRC3_wobSeed113_DR4_G15C_o1 (dsDNA)
DNA 1: GCATATGTAGGTTACCTGGGGTCATTCAGACTAGGCGCGATTGACAGCGTAGAATGAAGG
DNA 2: CCTTCATTCTACGCTGTCAATCGCGCCTAGTCTGAATGACCCCAGGTAACCTACATATGC
B20: NRC3_wobSeed87_DR3_T8G_o1 (dsDNA)
DNA 1: GCCGAACGAGGTCATCCAGGACAGTGAATACATTGAGCGATTGACAGCGTAGAATGAAGG
DNA 2: CCTTCATTCTACGCTGTCAATCGCTCAATGTATTCACTGTCCTGGATGACCTCGTTCGGC
B21: NRC3_wobSeed101_DR4_T23C_o1 (dsDNA)
DNA 1: GCCCTTACGGGTCACTCCAGGTCATAGCATCGGAGTGCGATTGACAGCGTAGAATGAAGG
DNA 2: CCTTCATTCTACGCTGTCAATCGCACTCCGATGCTATGACCTGGAGTGACCCGTAAGGGC
B22: NRC3_random_hg19_90_o1 (dsDNA)
DNA 1: GCTGAGTATTGTAGATTCATTGTTGAGATTCTAGATGCGATTGACAGCGTAGAATGAAGG
DNA 2: CCTTCATTCTACGCTGTCAATCGCATCTAGAATCTCAACAATGAATCTACAATACTCAGC

Molecular target: THRa:RXRa (Homo sapiens, UniProt P10827;P19793 full;full)
Sequence (P10827 other isoform, or with tags, fused parts or gaps, chain 1 of 2): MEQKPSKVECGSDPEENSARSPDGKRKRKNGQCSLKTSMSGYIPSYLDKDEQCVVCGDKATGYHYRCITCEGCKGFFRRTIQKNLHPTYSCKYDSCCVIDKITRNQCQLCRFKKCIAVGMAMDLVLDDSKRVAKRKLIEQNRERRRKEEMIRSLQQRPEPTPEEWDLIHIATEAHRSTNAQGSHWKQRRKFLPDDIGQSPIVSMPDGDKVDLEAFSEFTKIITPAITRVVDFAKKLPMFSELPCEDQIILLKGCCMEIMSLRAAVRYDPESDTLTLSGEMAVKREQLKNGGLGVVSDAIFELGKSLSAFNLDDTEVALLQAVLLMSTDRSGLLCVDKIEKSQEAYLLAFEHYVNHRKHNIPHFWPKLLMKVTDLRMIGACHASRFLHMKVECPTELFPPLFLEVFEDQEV
Sequence (P19793 whole entry, chain 2 of 2): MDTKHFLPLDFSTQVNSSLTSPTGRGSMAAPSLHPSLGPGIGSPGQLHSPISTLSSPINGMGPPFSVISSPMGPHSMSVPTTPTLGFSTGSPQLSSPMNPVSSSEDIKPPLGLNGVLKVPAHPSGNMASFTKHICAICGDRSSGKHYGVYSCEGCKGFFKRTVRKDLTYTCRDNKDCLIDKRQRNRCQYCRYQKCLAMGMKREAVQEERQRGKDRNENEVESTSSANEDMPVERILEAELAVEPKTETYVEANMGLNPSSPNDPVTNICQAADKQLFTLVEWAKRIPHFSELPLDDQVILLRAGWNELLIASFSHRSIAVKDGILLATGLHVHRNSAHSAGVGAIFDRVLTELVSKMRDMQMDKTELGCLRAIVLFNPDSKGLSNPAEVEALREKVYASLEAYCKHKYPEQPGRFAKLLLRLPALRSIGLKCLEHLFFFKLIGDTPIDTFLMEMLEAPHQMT
Assay: no ligand; PBM; 90 nM : 90 nM RXRa; PBS pH 7.4, 2% milk, 0.02% Triton X-100, 1 mM DTT, BSA, 0.4 mg/ml salmon testes DNA
Conditions: tags: His kept;His cleaved; copies: 1;1; label: surface-attached array probe

Binder | binding signal
B1 | 5.78 PBM z-score against 500 random probes
B2 | 5.78 PBM z-score against 500 random probes
B3 | 4.8 PBM z-score against 500 random probes
B4 | -0.23 PBM z-score against 500 random probes
B5 | 5.21 PBM z-score against 500 random probes
B6 | 5.06 PBM z-score against 500 random probes
B7 | 0.14 PBM z-score against 500 random probes
B8 | 0.36 PBM z-score against 500 random probes
B9 | 5.55 PBM z-score against 500 random probes
B10 | 5.13 PBM z-score against 500 random probes
B11 | -0.02 PBM z-score against 500 random probes
B12 | -0.09 PBM z-score against 500 random probes
B13 | 5.49 PBM z-score against 500 random probes
B14 | -0.41 PBM z-score against 500 random probes
B15 | 4.82 PBM z-score against 500 random probes
B16 | -0.82 PBM z-score against 500 random probes
B17 | -0.11 PBM z-score against 500 random probes
B18 | 0.22 PBM z-score against 500 random probes
B19 | 5.46 PBM z-score against 500 random probes
B20 | 4.78 PBM z-score against 500 random probes
B21 | 5.34 PBM z-score against 500 random probes
B22 | -0.22 PBM z-score against 500 random probes

Molecular target: LXRa:RXRa (Homo sapiens, UniProt Q13133;P19793 full;full)
Sequence (Q13133 whole entry, chain 1 of 2): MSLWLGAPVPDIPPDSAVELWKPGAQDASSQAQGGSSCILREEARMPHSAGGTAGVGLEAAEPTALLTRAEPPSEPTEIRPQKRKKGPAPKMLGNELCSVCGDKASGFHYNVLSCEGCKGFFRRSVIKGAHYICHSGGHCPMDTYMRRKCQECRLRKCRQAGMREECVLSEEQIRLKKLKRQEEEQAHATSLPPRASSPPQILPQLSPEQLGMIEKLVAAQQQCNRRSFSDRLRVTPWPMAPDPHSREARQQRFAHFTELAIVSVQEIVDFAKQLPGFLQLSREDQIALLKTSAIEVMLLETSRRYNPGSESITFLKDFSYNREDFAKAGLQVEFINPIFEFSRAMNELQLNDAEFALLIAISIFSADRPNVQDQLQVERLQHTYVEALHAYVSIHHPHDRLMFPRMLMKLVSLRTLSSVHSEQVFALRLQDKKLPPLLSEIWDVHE
Sequence (P19793 whole entry, chain 2 of 2): as the sequence (P19793 whole entry, chain 2 of 2) above
Assay: no ligand; PBM; 270 nM : 90 nM RXRa; PBS pH 7.4, 2% milk, 0.02% Triton X-100, 1 mM DTT, BSA, 0.4 mg/ml salmon testes DNA
Conditions: tags: His kept;His cleaved; copies: 1;1; label: surface-attached array probe
Procedure, shortened: (§1)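 Random background probes are the reference for binding z-scores. These scores derive from regression-normalized fluorescence on custom Agilent 4×180K protein-binding microarrays incubated 1 h with ligand-free nuclear receptor dimers. Binding was detected with antibodies against each partner (one per run).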

Binder | binding signal
B5 | 9.08 PBM z-score against 500 random probes
B6 | 6.65 PBM z-score against 500 random probes
B7 | 0.09 PBM z-score against 500 random probes
B11 | 0.47 PBM z-score against 500 random probes
B16 | -0.73 PBM z-score against 500 random probes
B17 | -0.07 PBM z-score against 500 random probes
B18 | 0 PBM z-score against 500 random probes
B19 | 8.75 PBM z-score against 500 random probes
B21 | 8.42 PBM z-score against 500 random probes

Molecular target: PPARa:RXRa (Homo sapiens, UniProt Q07869;P19793 full;full)
Sequence (Q07869 whole entry, chain 1 of 2): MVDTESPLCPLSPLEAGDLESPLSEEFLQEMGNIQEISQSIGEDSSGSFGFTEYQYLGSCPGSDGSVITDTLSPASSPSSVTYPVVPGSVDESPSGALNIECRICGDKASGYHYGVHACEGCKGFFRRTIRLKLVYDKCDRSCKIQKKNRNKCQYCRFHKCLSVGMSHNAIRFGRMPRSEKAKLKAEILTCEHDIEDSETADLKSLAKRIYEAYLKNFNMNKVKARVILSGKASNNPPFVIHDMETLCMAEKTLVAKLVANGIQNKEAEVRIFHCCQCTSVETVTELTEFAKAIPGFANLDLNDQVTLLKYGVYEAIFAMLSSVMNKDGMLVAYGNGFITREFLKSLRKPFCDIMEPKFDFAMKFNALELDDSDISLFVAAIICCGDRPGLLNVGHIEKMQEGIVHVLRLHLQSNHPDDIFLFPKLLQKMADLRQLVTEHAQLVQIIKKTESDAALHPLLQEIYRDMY
Sequence (P19793 whole entry, chain 2 of 2): as the sequence (P19793 whole entry, chain 2 of 2) above
Assay: as above
Conditions: tags: GST kept;His cleaved; copies: 1;1; label: surface-attached array probe
Procedure, shortened: as §1

Binder | binding signal
B17 | 0 PBM z-score against 500 random probes

Molecular target: RARb:RXRa (Homo sapiens, UniProt P10826;P19793 full;full)
Sequence (P10826 whole entry, chain 1 of 2): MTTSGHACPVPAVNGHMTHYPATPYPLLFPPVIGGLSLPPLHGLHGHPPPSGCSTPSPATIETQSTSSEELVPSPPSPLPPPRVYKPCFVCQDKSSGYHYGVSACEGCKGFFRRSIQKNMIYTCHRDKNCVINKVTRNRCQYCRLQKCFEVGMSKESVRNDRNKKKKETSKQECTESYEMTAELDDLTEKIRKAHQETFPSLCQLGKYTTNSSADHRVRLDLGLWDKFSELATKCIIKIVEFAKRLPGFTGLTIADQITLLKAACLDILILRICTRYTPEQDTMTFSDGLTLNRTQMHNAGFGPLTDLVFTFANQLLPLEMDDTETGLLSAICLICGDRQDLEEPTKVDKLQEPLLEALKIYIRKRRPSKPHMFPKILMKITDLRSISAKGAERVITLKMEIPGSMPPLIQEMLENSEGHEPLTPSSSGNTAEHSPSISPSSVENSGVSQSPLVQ
Sequence (P19793 whole entry, chain 2 of 2): as the sequence (P19793 whole entry, chain 2 of 2) above
Assay: as above
Conditions: tags: His kept;His cleaved; copies: 1;1; label: surface-attached array probe
Procedure, shortened: as §1

Binder | binding signal
B3 | 5.65 PBM z-score against 500 random probes
B11 | -0.02 PBM z-score against 500 random probes

Molecular target: FXR:RXRa (Homo sapiens, UniProt Q96RI1;P19793 full;full)
Sequence (Q96RI1 whole entry, chain 1 of 2): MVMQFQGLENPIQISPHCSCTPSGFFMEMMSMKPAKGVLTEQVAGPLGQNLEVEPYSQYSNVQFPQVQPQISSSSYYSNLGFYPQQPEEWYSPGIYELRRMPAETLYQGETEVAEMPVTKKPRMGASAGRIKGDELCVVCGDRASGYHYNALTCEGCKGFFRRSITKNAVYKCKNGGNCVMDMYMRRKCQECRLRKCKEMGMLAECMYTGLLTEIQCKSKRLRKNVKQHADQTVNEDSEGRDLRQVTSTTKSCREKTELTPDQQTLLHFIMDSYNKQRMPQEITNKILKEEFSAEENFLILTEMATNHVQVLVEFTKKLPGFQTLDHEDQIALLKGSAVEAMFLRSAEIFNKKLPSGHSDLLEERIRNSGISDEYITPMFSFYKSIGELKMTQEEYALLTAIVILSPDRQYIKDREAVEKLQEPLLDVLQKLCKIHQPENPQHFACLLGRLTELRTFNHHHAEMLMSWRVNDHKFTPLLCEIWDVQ
Sequence (P19793 whole entry, chain 2 of 2): as the sequence (P19793 whole entry, chain 2 of 2) above
Assay: as above
Conditions: tags: His kept;His cleaved; copies: 1;1; label: surface-attached array probe
Procedure, shortened: as §1

Binder | binding signal
B13 | 7.96 PBM z-score against 500 random probes
B15 | 7.9 PBM z-score against 500 random probes
B16 | -0.81 PBM z-score against 500 random probes
B17 | -0.18 PBM z-score against 500 random probes
B20 | 8.44 PBM z-score against 500 random probes

Molecular target: VDR:RXRa (Homo sapiens, UniProt P11473;P19793 full;full)
Sequence (P11473 whole entry, chain 1 of 2): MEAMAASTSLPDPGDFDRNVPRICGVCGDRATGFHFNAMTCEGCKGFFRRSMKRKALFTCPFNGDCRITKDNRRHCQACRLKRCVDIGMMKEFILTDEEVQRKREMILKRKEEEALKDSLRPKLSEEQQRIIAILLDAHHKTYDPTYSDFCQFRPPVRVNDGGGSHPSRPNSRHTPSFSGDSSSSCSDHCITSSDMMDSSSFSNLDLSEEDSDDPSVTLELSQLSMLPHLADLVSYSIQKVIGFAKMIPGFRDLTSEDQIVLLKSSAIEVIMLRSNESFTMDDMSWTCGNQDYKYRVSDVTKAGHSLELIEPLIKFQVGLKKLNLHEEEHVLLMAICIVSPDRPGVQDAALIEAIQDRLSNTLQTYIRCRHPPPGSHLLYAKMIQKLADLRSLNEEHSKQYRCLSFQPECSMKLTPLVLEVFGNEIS
Sequence (P19793 whole entry, chain 2 of 2): as the sequence (P19793 whole entry, chain 2 of 2) above
Assay: as above
Conditions: tags: His kept;His cleaved; copies: 1;1; label: surface-attached array probe
Procedure, shortened: as §1

Binder | binding signal
B1 | 6.98 PBM z-score against 500 random probes
B2 | 6.63 PBM z-score against 500 random probes
B3 | 8.16 PBM z-score against 500 random probes
B9 | 6.65 PBM z-score against 500 random probes
B10 | 7.1 PBM z-score against 500 random probes
B13 | 7.3 PBM z-score against 500 random probes
B20 | 6.85 PBM z-score against 500 random probes

Molecular target: RARg:RXRa (Homo sapiens, UniProt P13631;P19793 full;full)
Sequence (P13631 whole entry, chain 1 of 2): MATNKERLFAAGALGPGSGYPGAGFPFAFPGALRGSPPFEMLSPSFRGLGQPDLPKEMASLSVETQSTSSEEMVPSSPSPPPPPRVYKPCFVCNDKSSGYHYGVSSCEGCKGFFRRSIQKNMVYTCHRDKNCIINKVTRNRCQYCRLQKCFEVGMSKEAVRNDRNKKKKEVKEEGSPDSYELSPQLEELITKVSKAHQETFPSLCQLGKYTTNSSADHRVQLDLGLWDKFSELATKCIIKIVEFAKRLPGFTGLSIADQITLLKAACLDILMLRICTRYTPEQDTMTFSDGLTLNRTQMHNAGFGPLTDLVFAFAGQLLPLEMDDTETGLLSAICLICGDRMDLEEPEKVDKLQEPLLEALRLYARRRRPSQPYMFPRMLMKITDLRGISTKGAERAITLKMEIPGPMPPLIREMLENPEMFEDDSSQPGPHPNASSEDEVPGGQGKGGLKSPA
Sequence (P19793 whole entry, chain 2 of 2): as the sequence (P19793 whole entry, chain 2 of 2) above
Assay: as above
Conditions: tags: His kept;His cleaved; copies: 1;1; label: surface-attached array probe
Procedure, shortened: as §1

Binder | binding signal
B6 | 4.49 PBM z-score against 500 random probes
B7 | 0.41 PBM z-score against 500 random probes
B10 | 7.52 PBM z-score against 500 random probes

Molecular target: LXRb:RXRa (Homo sapiens, UniProt P55055;P19793 full;full)
Sequence (P55055 whole entry, chain 1 of 2): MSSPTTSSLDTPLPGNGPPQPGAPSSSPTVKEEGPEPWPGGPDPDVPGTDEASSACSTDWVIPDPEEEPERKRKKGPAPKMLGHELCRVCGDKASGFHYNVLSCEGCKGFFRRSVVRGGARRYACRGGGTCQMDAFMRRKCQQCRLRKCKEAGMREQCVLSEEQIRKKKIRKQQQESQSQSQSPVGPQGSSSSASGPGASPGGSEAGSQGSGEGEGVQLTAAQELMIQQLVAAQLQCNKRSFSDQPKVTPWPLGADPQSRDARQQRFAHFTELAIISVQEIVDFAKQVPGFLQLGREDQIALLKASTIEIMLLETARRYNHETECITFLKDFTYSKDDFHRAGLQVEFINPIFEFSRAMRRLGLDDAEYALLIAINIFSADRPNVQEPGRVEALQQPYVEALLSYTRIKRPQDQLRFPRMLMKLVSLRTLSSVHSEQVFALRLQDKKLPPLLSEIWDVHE
Sequence (P19793 whole entry, chain 2 of 2): as the sequence (P19793 whole entry, chain 2 of 2) above
Assay: as above
Conditions: tags: His kept;His cleaved; copies: 1;1; label: surface-attached array probe
Procedure, shortened: as §1

Binder | binding signal
B5 | 8.32 PBM z-score against 500 random probes
B16 | -0.93 PBM z-score against 500 random probes
B19 | 8.08 PBM z-score against 500 random probes
B21 | 7.16 PBM z-score against 500 random probes

Molecular target: PXR:RXRa (Homo sapiens, UniProt O75469;P19793 full;full)
Sequence (O75469 whole entry, chain 1 of 2): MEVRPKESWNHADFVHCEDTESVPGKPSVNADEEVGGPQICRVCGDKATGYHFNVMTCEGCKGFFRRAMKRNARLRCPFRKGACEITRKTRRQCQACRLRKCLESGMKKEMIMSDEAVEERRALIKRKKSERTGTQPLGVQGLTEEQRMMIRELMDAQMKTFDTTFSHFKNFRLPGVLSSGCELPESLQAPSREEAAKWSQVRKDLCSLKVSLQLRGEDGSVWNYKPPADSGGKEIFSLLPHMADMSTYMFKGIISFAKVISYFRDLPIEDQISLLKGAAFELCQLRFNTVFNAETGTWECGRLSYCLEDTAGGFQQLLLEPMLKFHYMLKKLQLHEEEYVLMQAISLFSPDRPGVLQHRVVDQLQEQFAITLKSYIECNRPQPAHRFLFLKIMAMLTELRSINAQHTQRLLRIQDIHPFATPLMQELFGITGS
Sequence (P19793 whole entry, chain 2 of 2): as the sequence (P19793 whole entry, chain 2 of 2) above
Assay: as above
Conditions: tags: His kept;His cleaved; copies: 1;1; label: surface-attached array probe
Procedure, shortened: as §1

Binder | binding signal
B1 | 7.12 PBM z-score against 500 random probes
B2 | 6.95 PBM z-score against 500 random probes
B3 | 7.16 PBM z-score against 500 random probes
B4 | -0.01 PBM z-score against 500 random probes
B8 | 0.5 PBM z-score against 500 random probes
B9 | 6.89 PBM z-score against 500 random probes
B10 | 6.51 PBM z-score against 500 random probes
B12 | -0.39 PBM z-score against 500 random probes
B13 | 7.59 PBM z-score against 500 random probes
B14 | -0.28 PBM z-score against 500 random probes
B15 | 6.81 PBM z-score against 500 random probes
B20 | 6.36 PBM z-score against 500 random probes
B22 | -0.1 PBM z-score against 500 random probes

— publication PMC6555819, “Comprehensive study of nuclear receptor DNA binding provides a revised framework for understanding receptor specificity”
